{"source": "the nanobody polyreactivity screen of Harvey et al. (2022)", "data": [{"experiment": "yeast display, Sf9 membrane polyspecificity reagent, FACS + sequencing; frameworks hold sequencing errors", "method_in_brief": "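Galactose induction of a Saccharomyces cerevisiae BJ5465 synthetic nanobody display library ran 36–48 hours. The cells were then stained for 1 hour at 4 °C with 10% biotinylated, detergent-solubilized Sf9 membrane reagent, pulled down on streptavidin microbeads and FACS-sorted into low and high (top ~1%) gates on expression and reagent-binding fluorescence. Labels for polyreactivity follow the gate of origin.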", "values": [{"sequence": "QVQLVESGGGLVQAGGSLRLSCAASGLTFPYNVMGWYRQAPGKERELVASITSVGTTDYADSVKGRFTISRDNAKNTVSVLMNSLKPEVTAVYYCAADVTLFYWWYGKEDYDYWGQGTQVTVSS", "polyreactivity (PSR sort gate)": "low polyreactivity"}, {"sequence": "QVQLVESGGGLVQAGGSLRLSCAASGLTFPYYAMGWYRQAPGKERELVAVITSGGRTYYADSVKGRFTISRDNAKNTVYLQMNSLKPEDTAVYYCAVGWRTIYGSDGDYWGQGTQVTVST", "polyreactivity (PSR sort gate)": "high polyreactivity"}, {"sequence": "QVQLVESGGGLVQAGGSLRLSCAASGLTFPYYVMGWSRQAPGKERELVAAITTDDRTYYADSVKGRFTISRDNAKNTVYLQMNSLKPEDTAVYYCNVVIYYFNSRTVYYDYDYWGQGTQVTVSS", "polyreactivity (PSR sort gate)": "high polyreactivity"}, {"sequence": "QVQLVESGGGLVQAGGSLRLSCAASGLTFQKYAMGWYRQAPGKERELVAAISRGGDTYYADSVKGRFTISRDNAKNTVYLQMNSLKPEDTAVYYCAASNYLYRYSHYGYWGQGTQVTVSS", "polyreactivity (PSR sort gate)": "high polyreactivity"}, {"sequence": "QVQLVESGGGLVQAGGSLRLSCAASGLTFQLYTMGWYRQAPGKERELVAAISRSGTRTYYADSVKGRFTISRDNAQNTVYLQMNSLKPEDTAVYYCAARTDGYRNNYWGQATQVTVSS", "polyreactivity (PSR sort gate)": "high polyreactivity"}, {"sequence": "QVQLVESGGGLVQAGGSLRLSCAASGLTFQNNAMGWYRQAPGKERELVAVITRIGGSTYYADSVKGRFTISRDNAKNTVYLQMNSLKPEDTAVYYCAAGYRTRRRLHDYWGQGTQVTVSS", "polyreactivity (PSR sort gate)": "high polyreactivity"}, {"sequence": "QVQLVESGGGLVQAGGSLRLSCAASGLTFQTNAMGWYRQAPGKERELVAAISRRGSSTYYADSVKGRFTISRDNAKNTVYLQMNSLKPEDTAVYYCNAVRFLFIYPRYDYWGQGTQVTVSS", "polyreactivity (PSR sort gate)": "high polyreactivity"}, {"sequence": "QVQLVESGGGLVQAGGSLRLSCAASGLTFQYNAMGWYRQAPGKERELVAVISWSGGSTYYADSVKGRFTISRDNAMNTVYLQMNSLIPEDTAVYYCNAVGFVWYFDVYSYFTEFKYDYWGQGTQVTVSS", "polyreactivity (PSR sort gate)": "low polyreactivity"}, {"sequence": "QVQLVESGGGLVQAGGSLRLSCAASGLTFRDNAMGRYRQAPGKERELVATINSGGSTDYADSVKGRFTISRDNAKNTVYLQMNSLKPEDTAVYYCAVSREYYDRGWYSIFYWYVYWGQGTQVTVSS", "polyreactivity (PSR sort gate)": "low polyreactivity"}, {"sequence": "QVQLVESGGGLVQAGGSLRLSCAASGLTFRIYAMGWYRQAPGKERQLVAAISYRGGSTYYADSVKGRFTISRDNAKNTVYLQMNSLKPEDTAVYYCAAGFVLNGIRYDYWGQGTQVTVSS", "polyreactivity (PSR sort gate)": "high polyreactivity"}, {"sequence": "QVQLVESGGGLVQAGGSLRLSCAASGLTFRSYTMGWYRQAPGKERELVAAISSGGSTYYADSVKGRFTISRDNAKNTVYLQMNSLKPEDTAVYYCAAPRGHGKYYSWGQGTQVTVSS", "polyreactivity (PSR sort gate)": "high polyreactivity"}, {"sequence": "QVQLVESGGGLVQAGGSLRLSCAASGLTFRVYAMVWYRQAPGKERELVAAISKRGGSTYYADSVKGRFTISRDNAKKTVYLQMNSLKPEENAVYSCAADSDNSVRLAGSGGNYCGQGTQVTVSS", "polyreactivity (PSR sort gate)": "high polyreactivity"}, {"sequence": "QVQLVESGGGLVQAGGSLRLSCAASGLTFRYYAMGWYRQAPGKERELVAAITRRGSTYYADSVKGRFTISRDNAKNSVYLQMNSLKPEDTAVYYGATVTGFHSSPLRDLDYWGQGTQVTVSS", "polyreactivity (PSR sort gate)": "high polyreactivity"}, {"sequence": "QVQLVESGGGLVQAGGSLRLSCAASGLTFRYYTMGWYRQAPGKERELVASINIRGGSTYYADSVKGRFTISRDNAKNTVYLQMNSLKAEDTSVYYCNNRYGFSFGYWGQGTQVTVSS", "polyreactivity (PSR sort gate)": "high polyreactivity"}, {"sequence": "QVQLVESGGGLVQAGGSLRLSCAASGLTFSAYAMGWYRQAPGKERELVAAITTGGGRTYYADSVKGRFTISRDNAKNTVYLQMNSLKPEDTAVYYCNTLRAYWTYHFYGAVRDGYDYWGQGTKVTVSS", "polyreactivity (PSR sort gate)": "low polyreactivity"}, {"sequence": "QVQLVESGGGLVQAGGSLRLSCAASGLTFSDYAMGWYRQAPGKERAFVAAITRNGGSTRYADSVKGRFTISRDNAKITVYLQMHSLKPEDTAVYYCATDVGFGRKQRPHRPGYGYWGQGTQVTVSS", "polyreactivity (PSR sort gate)": "low polyreactivity"}, {"sequence": "QVQLVESGGGLVQAGGSLRLSCAASGLTFSGNVMGWYRQAPGKERELVAAIDRSGGSTYYADSVKGRFTISRDNAKNTVYLQMNSLKPEDTAVYYCAVSSYPNHSRSWDDYWGQGTQVTVSS", "polyreactivity (PSR sort gate)": "low polyreactivity"}, {"sequence": "QVQLVESGGGLVQAGGSLRLSCAASGLTFSKYVMGWYRQAPGKERELVAAITWSGGRTYYADSVKGRFTISRDNAKNTVYLLMNSLKPEDTAVYYCNRKLKGLGYEYDYWGQGTQVTVSS", "polyreactivity (PSR sort gate)": "high polyreactivity"}, {"sequence": "QVQLVESGGGLVQAGGSLRLSCAASGLTFSKYVMGWYRQAPGKERELVAAITWSGGRTYYADSVKGRFTISRDNAKNTVYLQMNSLKPEDTAVYYCNRKLKGLGYEYDYWGQGTQVTVSS", "polyreactivity (PSR sort gate)": "high polyreactivity"}, {"sequence": "QVQLVESGGGLVQAGGSLRLSCAASGLTFSLNAMGGYRQAPGKERELVAAIRGSGGSTYYADSVKGRFTISRDNAKNTVYLQMNSLKPEDTAVYYCNADQLVWQRYGVLYEYDYWGQGTQVTVSS", "polyreactivity (PSR sort gate)": "high polyreactivity"}, {"sequence": "QVQLVESGGGLVQAGGSLRLSCAASGLTFSQNAMGWYRQAPGKERELVAAITRSGSTTHYADSVKGRFTISRDNAKNTVYLQMNSLKPEDTAVYYCAAVAFLTRYYYWGQGTQVTVSS", "polyreactivity (PSR sort gate)": "high polyreactivity"}, {"sequence": "QVQLVESGGGLVQAGGSLRLSCAASGLTFSRYAMGWYRQAPGKERELVAAITWSGSSTYYADSVKGRFTISRDNAKNTVYLQMNSLKPEDTAVYYCAARYGYSRGPYYRSDYWGQGTQVTVSS", "polyreactivity (PSR sort gate)": "high polyreactivity"}, {"sequence": "QVQLVESGGGLVQAGGSLRLSCAASGLTFSVYAMGWYRQAPGKERELVAAISYSGDSTYADSVKGRFTISRDNAKNTVYLQMNSLKPEDTAVYYCNARWVRQGYRRWYDYWGQGTQVTVSS", "polyreactivity (PSR sort gate)": "low polyreactivity"}, {"sequence": "QVQLVESGGGLVQAGGSLRLSCAASGLTFSVYAMGWYRQAPGKERELVAAITRNGGSTYYADSVKGRFTISRDNAKNTVYLQMNSLKTEDTAVYYCAADASSKLYDYWGQGTQVSVSS", "polyreactivity (PSR sort gate)": "low polyreactivity"}, {"sequence": "QVQLVESGGGLVQAGGSLRLSCAASGLTFSWNAMGWYRQAPGKERELVAAISSRGGSTYYADSVKWRFKISRDNAKNTVYLQMNSLKPEDTAVYYCNAHGRRFLGDYGYWGQGTQVTVSS", "polyreactivity (PSR sort gate)": "low polyreactivity"}, {"sequence": "QVQLVESGGGLVQAGGSLRLSCAASGLTFTGYFMGWYRQAPGKERELVAAISYSGSSTYYADSVKGRFTISRDNAKNTVYLQMNSLKQEDTAVYYCAATSHAYYPRYYYWGQGTQVTVSS", "polyreactivity (PSR sort gate)": "high polyreactivity"}, {"sequence": "QVQLVESGGGLVQAGGSLRLSCAASGLTFTKYAMGWYRKAPGKEREFVASISWNGGDTYADSVKGRFTISRDNAKNTVYLQMNSLKPEDTAVYYCAARRTQQKVYYWGQGTQVTVSS", "polyreactivity (PSR sort gate)": "high polyreactivity"}, {"sequence": "QVQLVESGGGLVQAGGSLRLSCAASGLTFTSYAMGWSRPAPGKERELVAAIDWSGGRTYYADSVKGRFTISRDNAKNTVYLQMNSLKPEDTAVYYCAAYSRNRALRFNYWGQGTQVTVSS", "polyreactivity (PSR sort gate)": "high polyreactivity"}, {"sequence": "QVQLVESGGGLVQAGGSLRLSCAASGLTFTSYAMGWYRQAPGKERELVAAIDWSGGRTYYADSVKGRFTISRDNAKNTVYLQMNSLKPEDTAVYYCYKYRYQWPYRRFDYWGQGTQVTVSS", "polyreactivity (PSR sort gate)": "high polyreactivity"}, {"sequence": "QVQLVESGGGLVQAGGSLRLSCAASGLTFTYYAMGWYRQAPGKERELVAAISSSGSDTYYADSVKGRFTISRDNAKNTVYLQMNSLKPEDTAVYYCAAVLTALSPDFEYEYWGQGTQVTVSS", "polyreactivity (PSR sort gate)": "low polyreactivity"}, {"sequence": "QVQLVESGGGLVQAGGSLRLSCAASGLTFVANAMGWYRQAPGKERELVAAIDYGGGHTYYADSVKGRFTNSRDNAKNTVYLQMNSLKPEDTAVYYCAVGLPHGGRRLYGSWYRFDYWGQGTQVTVSS", "polyreactivity (PSR sort gate)": "low polyreactivity"}, {"sequence": "QVQLVESGGGLVQAGGSLRLSCAASGLTFVDYAMGWYRQAPGKERELVAAITSSGGSITYYADSVKGRFTISRDNAKNTVYLQMNSLKPEDTAVYYCNADYGIYTDSFRGPDYESWGQGTQVTVSS", "polyreactivity (PSR sort gate)": "low polyreactivity"}, {"sequence": "QVQLVESGGGLVQAGGSLRLSCAASGLTFVFYAMGWYRQAPGKERELVAAISSSGGSTNYADSVKGRFTISRDNAKNTVYLQMNSLKPEDTAVYYCNAALLGKQYYSNPNYDYWGQGTQVTVSS", "polyreactivity (PSR sort gate)": "high polyreactivity"}, {"sequence": "QVQLVESGGGLVQAGGSLRLSCAASGLTFVFYAMGWYRQSPGNERELVAAISWSTGRTYYADSVKGRFTISRDNAKNTVYLQMNSLKPEDTAVFYCGASFLGRKYDYWGHGTQVTVSS", "polyreactivity (PSR sort gate)": "high polyreactivity"}, {"sequence": "QVQLVESGGGLVQAGGSLRLSCAASGLTFVGNAMGWYRQAPGKERELVAAISRSGGRTYYADSVKGRFTISRDNAKNTVYLQMNSLKPEDTAVYYCAAPYRSYDWYDYWGQGTQVTVSS", "polyreactivity (PSR sort gate)": "high polyreactivity"}, {"sequence": "QVQLVESGGGLVQAGGSLRLSCAASGLTFVHYAMGWYRQAPGKQRDLVAAISSGGGSTYYADSVKGRFTISRDNAKNTVYLQMNSLKPEDTAVYYCNVYDHYYSFYSSRDNDYWGQGTQVTVSS", "polyreactivity (PSR sort gate)": "low polyreactivity"}, {"sequence": "QVQLVESGGGLVQAGGSLRLSCAASGLTFVPNAMGWYRQAPGKERELVAAISNNGGRTYYADSVKGRFTISRDNAKNNVYLQMNSLKPEDTAVYYCAKYLSPGERHSYDYWGQGTQVTLSS", "polyreactivity (PSR sort gate)": "high polyreactivity"}, {"sequence": "QVQLVESGGGLVQAGGSLRLSCAASGLTFVQNAMGWYRQAPGKERELVAAISTSGGSTYYADSVKGRFTISRDNAKNTVYLQMNSLKPEDTAVYYCAAYPRSWWRGYDYWGQGTQVTVSS", "polyreactivity (PSR sort gate)": "high polyreactivity"}, {"sequence": "QVQLVESGGGLVQAGGSLRLSCAASGLTFVRYAMGWYRQAPGKERELVAVISYSGARTYYADSVKGRFTISRDNAKNTVYLQMNSLKPEDTAVYYCAATFRGTFRRIWTDTRAYDYWGQGTQVTVSS", "polyreactivity (PSR sort gate)": "high polyreactivity"}, {"sequence": "QVQLVESGGGLVQAGGSLRLSCAASGLTFVTYVMGWYRQAPGKERELVAAISYSGGSTYYADSVKGRFTISRDNAKNTVYLQMISLKPEDTAVYYCAAEWYGYQEDDYWGQGTQVTVSS", "polyreactivity (PSR sort gate)": "low polyreactivity"}, {"sequence": "QVQLVESGGGLVQAGGSLRLSCAASGLTFVYNTMGWYSQAPGKERELVAAISSSGGTTYYADSVKGRFTISRDTAKNTVYLQMNSLKPEDTAVYYCAARPSGGYESTRTRDYWGQGTHVTVSS", "polyreactivity (PSR sort gate)": "low polyreactivity"}, {"sequence": "QVQLVESGGGLVQAGGSLRLSCAASGLTFVYYAMGWSRPAPGKERELVAAISRGGTTYYADSVKGRFTISRDNAKNTVYLQMNSLKPEDTAVYYCARVGRYRYEWGQGTQVTVSS", "polyreactivity (PSR sort gate)": "high polyreactivity"}, {"sequence": "QVQLVESGGGLVQAGGSLRLSCAASGLTFVYYTMGWYRQAPGKERELVAAISGSGDNTYYADSVKGRFTISRDNAKNTVYLQMNSLKPEDTAVYYCAADKSYYYYLFGYDYWGQGTQVTVSS", "polyreactivity (PSR sort gate)": "low polyreactivity"}]}]}
